In patent US11229713B2, “Methods and compositions for 18F-radiolabeling of biologics” (BRISTOL-MYERS SQUIBB COMPANY, priority 2014, dated 2022):

Target: PD-L1 (Homo sapiens, UniProt Q9NZQ7)
Test: In vitro autoradiography blocking study in human lung tumor and xenograft tissue sections
Parameters: PD-L1-positive L2987 human lung carcinoma cells or PD-L1-negative HT-29 human colorectal adenocarcinoma cells; endogenous in cells; host or cells: L2987 human lung carcinoma cells (HT-29 as PD-L1-negative control)
Conditions: A02 0.025-25 nM, non-PD-L1 binding adnectin 25 nM, 1 hour room temperature
Procedure: Human lung tumor tissues were embedded in OCT and chilled in 2-methylbutane for 2-5 minutes until frozen. The samples were stored in −80° C. degree freezer until use. Human xenograft tissues were also included in the assay. Mice bearing bilateral xenografts were produced by introducing 4×10^6 PD-L1(+) L2987 cells and 1.5×10^6 PD-L1(−) HT-29 t cells subcutaneously into opposite flanks of nu/nu mice. Once resulting xenograft tumors reached appropriate size (approx. 200-300 mm^3) mice were anesthetized with 2% isoflurane and sacrificed via cervical dislocation. Fresh tumor tissues were excised, immersed into OCT and chilled in 2-methylbutane for 2-5 minutes until frozen. The tissues were then wrapped in foil/ZIPLOC® bag and stored at −80° C. until use. For all tissues (human lung tumor and xenografts) sections of 5 μm thickness (collected as 2 sections/slide) were cut using a cryostat, thaw-mounted on glass microscope slides, and allowed to air dry for approximately 30 minutes.
Blocking studies with cold (unlabeled) A02 adnectin at 0.025 nM, 0.25 nM, 2.5 nM and 25 nM respectively and 25 nM non-PD-L1 binding adnectin were conducted using the following conditions. […] Autoradiography signal from tissue-associated radioactivity was quantified from these ROIs.

Sequence of PD-L1 (Q9NZQ7 19-290): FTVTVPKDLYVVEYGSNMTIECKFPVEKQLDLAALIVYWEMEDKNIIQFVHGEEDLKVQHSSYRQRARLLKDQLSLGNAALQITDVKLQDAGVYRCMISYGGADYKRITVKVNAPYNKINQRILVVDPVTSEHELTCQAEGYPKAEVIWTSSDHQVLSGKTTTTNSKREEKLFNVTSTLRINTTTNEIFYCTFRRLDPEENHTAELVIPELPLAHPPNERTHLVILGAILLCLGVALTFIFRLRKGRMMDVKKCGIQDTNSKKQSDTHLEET

displacement / blockade of 0.25 nM ^18F-A02 adnectin radioligand compared to total binding: dose dependent displacement
B1: A02 adnectin: anti-PD-L1 Adnectin, SEQ ID NO: 2, cold (unlabeled) (protein)
chain: EVVAATPTSLLISWSYDGPIDRYYRITYGETGGNSPVQEFTVPPDQKTATISGLKPGVDYTITVYAVRLEEAHYNREFPISINYRTPC
modifications: Synthetic 18F-radiolabeled PD-L1 Adnectin, A02
